Experimental data taken from paper PMC6806390.

Target: Cytochrome-C, type III (Sigma C-2506) (UniProt P00004)
Assay: SDS-PAGE of the methanol precipitate

Chain of Cytochrome-C, type III (Sigma C-2506), P00004 1-105 (natural protein; other documents disagree on this pair) (P00004 whole entry): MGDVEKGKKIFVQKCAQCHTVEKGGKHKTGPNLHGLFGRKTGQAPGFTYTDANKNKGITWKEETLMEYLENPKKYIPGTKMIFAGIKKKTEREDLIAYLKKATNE

stoichiometry N: > 7
Substance: Cytochrome-C, type III (Sigma C-2506), P00004 1-105 (natural protein; other documents disagree on this pair)
